From PMC8420576 come the findings set out here.

This experiment concerns the target SARS-CoV-2 Spike RBD (residues 334–527), C-terminal Avi-His6 tag, biotinylated (SARS-CoV-2) (UniProt P0DTC2). The experiment can be described thus: BLI. (In general: BLI is a label-free optical method that tracks binding on a fibre tip over time.)

Consider VHH72, for which the dissociation constant (Kd) – broadly, the free concentration of one partner at which half of the binding sites on the other are occupied at equilibrium, for simple one-to-one binding – was 27 nM and the off-rate constant (koff) (in general, the rate constant with which the complex falls apart) is 0.0036 s⁻¹.
